# The nanobody polyreactivity screen of Harvey et al. (2022)
# Test: yeast display, Sf9 membrane polyspecificity reagent, FACS + sequencing; frameworks hold sequencing errors
# Method in brief: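 In a synthetic yeast display library (Saccharomyces cerevisiae BJ5465), nanobody expression was induced with galactose for 36–48 hours. FACS gates were set low and high (top ~1%) using anti-HA fluorescence for expression and streptavidin fluorescence for binding of the Sf9 membrane reagent. Each polyreactivity label is drawn from the gate of origin.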
row,Sequence,polyreactivity (PSR sort gate)
1,QVQLVESGGGLVQAGGSLRLSCAASGSTFSHYTMGSYRQAAGKERELVAAITRSGGSTYYADSVKGRFTISRDNAKNTVYLQMNSLKTEDSAVYYSAATRHWNILRYDYWGQGTQVTVSS,low polyreactivity
2,QVQLVESGGGLVQAGGSLRLSCAASGSTFSINAMGWYRQAPGKERELVAAITWRGTRTYYADSVKGRFTISRDNAKNTVYLQMNSLTPEDTAVYYCAATGSGQASYYYWGQGTQVTVSS,high polyreactivity
3,QVQLVESGGGLVQAGGSLRLSCAASGSTFSKNTMGWYRQAPGKERELVAAITTRGSSTYYADSVKGRFTISRDNAKNTVYLQMNSLKPEDTAVYYCAAGRYGWKHVWYYYWGQGTQVTVSS,high polyreactivity
4,QVQLVESGGGLVQAGGSLRLSCAASGSTFSLYDMGWYRQAPGKERELVAAIRWSGDSTYYADSVKGRFTISRDNAKNTVYLQMNSLKPEDTAVYYCAKDQSSPWDIQFLVYGGYEYWGQGTQVTVSS,low polyreactivity
5,QVQLVESGGGLVQAGGSLRLSCAASGSTFSNNAMAWYRQAPGKERELVAGINSSGGRTYYADSVKGRFTISRDNAKNTVYLQMISLKPEDTAVYYCAAESRYYYELGYWGQGTQVTVSS,high polyreactivity
6,QVQLVESGGGLVQAGGSLRLSCAASGSTFSPNAMGWYRQAPGKERELVAAITGGGSTYADSVKGRFTISRDNAKNTVYLQMNSLKPEDTAVYYCNRDYRSDLGYADQSWTDQYDYWGQGTQVTVSS,low polyreactivity
7,QVQLVESGGGLVQAGGSLRLSCAASGSTFSPNAMGWYRQAPGKERELVAAITYRGANTYYADSVKGRFTISRDNAKNTVYLQMNSLKPEDTAVYYCAAEYAYHHVGFGYWGQGTLVTVSS,low polyreactivity
8,QVQLVESGGGLVQAGGSLRLSCAASGSTFSPNVMGWYRQAPGKERELVAAISSSTGSTNYADSVKGRFTISRDNAKNTVYLQMNSLKPEDTAVDYCAVDPYVHWTTKLYDYWGQGTLVTVSS,low polyreactivity
9,QVQLVESGGGLVQAGGSLRLSCAASGSTFSPYAMGGSRQAPGKEREVVAAINSGSSTNYADSVKGRFTISRDNAKNTVYFQMNSLKPEDTAVYYCAADGQLPPRGILASWEFDYWGQGTQVTVSS,low polyreactivity
10,QVQLVESGGGLVQAGGSLRLSCAASGSTFSPYAMGWYRQAPGKEREIVAAISWGDGSTYYADSVKGRFTISRDNAKNTVYLQINSLKPEDTAVYYCNVKPSARGAPLYDYWGQGTQVTVSS,high polyreactivity
11,QVQLVESGGGLVQAGGSLRLSCAASGSTFSPYAMGWYRQSPGKEMELVAVITSSGGDTYYADSVKGRFTISRDNAKNTVYLQMNSLKPEDTAVYYCAADWWVLGQLWFDYWGQGTQVTVSS,low polyreactivity
12,QVQLVESGGGLVQAGGSLRLSCAASGSTFSPYDMGWYRQAPGKERELVAAITYRGGSTYYADSVKGRFTISRDNAKNTVYLQMNSLKPEDTAVYYCAAEIYQYSYGGTGWTLDWGQGTQVTVSS,low polyreactivity
13,QVQLVESGGGLVQAGGSLRLSCAASGSTFSQNAMGWYRQAPGKERELVAAITSGGITYYADSVKGRFTISRDNAKNTVYLQMNSLKPEDTAVYYCAAVTPSGAHRSAYHPISDYWGQGTQVTVSS,low polyreactivity
14,QVQLVESGGGLVQAGGSLRLSCAASGSTFSRNAMGWSRQAPGKERELVAAITRSGGSTYYADSVKGRFSISRDNAKNTVYLQMNSLKPEDTAVYYCAVLSVRRSYNYWGQGTQVTVSS,high polyreactivity
15,QVQLVESGGGLVQAGGSLRLSCAASGSTFSRYAMGWYRPAPGKERELVAAISRSGGTTYYADSVKGRFTISRDNAKNTVYLQMNSLKPEDTAVYYCNARGRYEYGYWGQGTQVTVSS,high polyreactivity
16,QVQLVESGGGLVQAGGSLRLSCAASGSTFSRYAMGWYRQAPGKEMELVAAISWSGGSTYYADSVKGRFTISRDNAKNTVYLQMNSLKPEDTAVYYCAAYTYSFRANHDYWGQGTQVTVTS,high polyreactivity
17,QVQLVESGGGLVQAGGSLRLSCAASGSTFSRYAMGWYRQAPGKERELVAAIRRSAGSTYYADSVKGRFTISRDNAKNTVYLQMNSLKPEDTAVYYCAAAGRYDYWGQGTQVTVSS,high polyreactivity
18,QVQLVESGGGLVQAGGSLRLSCAASGSTFSRYAMGWYRQAPGKERELVAAISRSGGSTYYADSVKGRFTISRDNAKNTVYLQMNSLKPEDTAVYYCAKVTTYVSAWQGNGYWGQGTQVTVSS,high polyreactivity
19,QVQLVESGGGLVQAGGSLRLSCAASGSTFSRYAMGWYRQAPGKERELVAAISSDGTTYYADSVKGRFTISRDNAKNTVYLQMNSLKPEDTAVYYCAKRGYYRSRRYDYWGQGTQVTVSS,high polyreactivity
20,QVQLVESGGGLVQAGGSLRLSCAASGSTFSRYAMGWYRQAPGKVRELVAAISWGGNTYYADSVKGRFTISRDNAKNTVYLQMNSLKPEDTAVYYCNRYSKLYNTMDYWGQGTQVTVSS,high polyreactivity
21,QVQLVESGGGLVQAGGSLRLSCAASGSTFSRYTMGWYRQAPGKERELVAGISGIGGSTDYADSVKGRFTISRDNAKNTVYLQMNSLKPEDTAVYYCNAEYTASYSRGFWRYYYPFEYWGQGTQVTVSS,high polyreactivity
22,QVQLVESGGGLVQAGGSLRLSCAASGSTFSSYAMGWYRQAPGKERELVAATYYADSVKGRFTISRDNAKNTVYLQMNSLKPEDTAVYYCNADNAYQGGKEYDYWGQGTQVTVSS,low polyreactivity

row,Sequence,polyreactivity (PSR sort gate)
1,QVQLVESGGGLVQAGGSLRLSCAASGSTFSSYVMGWYRQAPGKERELVAGITRGGRTYYADSVKGRFTISRDNAKNTVYLQMNSLKPEDTAVYYCAKDQGGVHELDYWGQGTQVTVSS,low polyreactivity
2,QVQLVESGGGLVQAGGSLRLSCAASGSTFSTNAMGWYRQAPGKERELVAAISRSGGRTYYADSVKGRFTISRDNAKNTVYLQMNSLKPEDTAVYYCNAVRRFASPSPHYYWGQGTQVTVSS,high polyreactivity
3,QVQLVESGGGLVQAGGSLRLSCAASGSTFSTNAMGWYRQAPGKERELVAAISRSGGSTYYADSVKGRFTISRDNAKNTFYLQMNSLKPEDTAVYYCARYSYRGTNVRYDYCGQGTQVTVSS,high polyreactivity
4,QVQLVESGGGLVQAGGSLRLSCAASGSTFSTYAMGWYRQAPGKERELVAAITAGGGSTYYADSVKGRFTISRDNAKNTVYLQMNSLKPEDTAVYYCAARSYYRFGGGYWGQGTQVTVSS,high polyreactivity
5,QVQLVESGGGLVQAGGSLRLSCAASGSTFSTYDMGWYRQAPGKEREFVAAISDSGGSTYYADSVKGRFTISRDNAKNTVYLQMNSLKPEDTAVYYCNATVVFVQYVDYDYWGQGTQVTVSS,low polyreactivity
6,QVQLVESGGGLVQAGGSLRLSCAASGSTFSVNAMGWYIQAPGKEREFVAAIRWPGGSTYYADSVKGRFTISRDNAKNTVYLQLNSLKPEDTAVYYCAARIKYRYDWGQGTQVTVSS,low polyreactivity
7,QVQLVESGGGLVQAGGSLRLSCAASGSTFSVYAMGWYRQAPGKERELVAAITWRGGTTYYADSVKGRFTISRDYAKNTVYLQMNSLKPEDTAVYYCNADWWRTLESDYWGQGTQVTVSS,low polyreactivity
8,QVQLVESGGGLVQAGGSLRLSCAASGSTFSVYAMGWYRQAPGKERELVASISSSVGRTFYADSVKGRFTISRDNAKNTVYLQMNSLKPEDTAVYYCAARSYQVKEYDHWGQGTQVTVSS,high polyreactivity
9,QVQLVESGGGLVQAGGSLRLSCAASGSTFSVYGMGWYRQAPGKERELVAAISGSGSRTYYADSVKGRFTISRDNAKNTVYLQMNSLKPEDTAVYYCAAVRRLLQGRTMYYWGQGTQVTVSS,high polyreactivity
10,QVQLVESGGGLVQAGGSLRLSCAASGSTFSYYAMGWDRQAPWKERELVAAITAGGGSTYYADSVKGRFTISRDNAKNTVYLQMNSLKPEDTAVYYCNADQIFGPALNLWKLDYWGQGTQVTVSS,low polyreactivity
11,QVQLVESGGGLVQAGGSLRLSCAASGSTFSYYAMGWYRQAPGKEREFVAAISSSGGRTYYADSVKGRFTISRDNAKNTVYLQMNSLKPEDTAVYYCNAYYLAEYDYWGQGTQVTVSS,high polyreactivity
12,QVQLVESGGGLVQAGGSLRLSCAASGSTFSYYAMGWYRQAPGKERELVAAIRSDGGSTYYADSVKGRFTISRDNAKNTVYLQMNSLKPEDTAVYYCNAPYRRSAKFRRYGYDYWGQGTQVTVSS,high polyreactivity
13,QVQLVESGGGLVQAGGSLRLSCAASGSTFSYYAMGWYRQAPWKERELVAASTAGGGSTYYADSVKGRFTISRDNAKNTVYLHMNSLKPEDTAVYYCNADQIFGPALNLWKLDYWGQGTQVTVSS,low polyreactivity
14,QVQLVESGGGLVQAGGSLRLSCAASGSTFTANAMGWSRQAPGKERELVAAISRSGGSTYYADSVKWRFTISRDNAKNTVYLQMNSLKPEDTAVYYCAAESPLFSPPDGEDYWGQGTQVTVSS,low polyreactivity
15,QVQLVESGGGLVQAGGSLRLSCAASGSTFTDYAMGWYRQAPGKERELVAAIRFSGGSTYYADSVKGRFTISRDNAKTTVYLQMNSLKPEDTAVYYCAAAGYPWLDSWGQGTQVTVSS,low polyreactivity
16,QVQLVESGGGLVQAGGSLRLSCAASGSTFTENAMGWYRQAPGKERELVATISTSDGSTHYADSVKGRFTISRDNAKNTVYLQMNSLKPEDTAVYYCAARPDYFLWHGYYTRRHYYWGQGTQVTVSS,low polyreactivity
17,QVQLVESGGGLVQAGGSLRLSCAASGSTFTEYAMGWYRQAPGKERELVAAITRSGGGTYYADSVKGRFTISRDNAKNTVYLQINSLKPEDTAVYYCAKDWYRRYIRDYWGQGTQVTVSS,high polyreactivity
18,QVQLVESGGGLVQAGGSLRLSCAASGSTFTFYAMGWYRQAPGKERELVATISSSGGSTYYADSVKGRFTFSRDNAKKTVYLQMNSLKPEDTAVYYCAADPSIVDGEYGYWGQGTQVTVSS,low polyreactivity
19,QVQLVESGGGLVQAGGSLRLSCAASGSTFTGNAMGWYRQAPGKEREFVAAITYSGTRTNYADSVKGRFTISRDNAKNTVYLQMNSLKPEDTAVYYCAARFPWRRRYYYWGQGTQVTVSS,high polyreactivity
20,QVQLVESGGGLVQAGGSLRLSCAASGSTFTGNSMGWYRQAPGKERELVAAISRSGGSTFYADSVKGRFTISRDNAKNTVSLQMNSLKPEDTAVYYCATRYVVDMDYWGQGTQVTVSS,high polyreactivity
21,QVQLVESGGGLVQAGGSLRLSCAASGSTFTGYAMGWYRQAPGKERELVAAITRGGSTYYADSVKGRFTISRDNAKNTVFLQMNSLKPEDTAVYYCAAKPTSREPTGPRYYYWGQGTQVTVSS,high polyreactivity
